Laboratory results from patent US20200190197A1 (REMD BIOTHERAPEUTICS, published 2020).

Experiments:
His-tagged PD-L1 protein [1] = molecular target: T1, His-tagged PD-L1 protein (human, UniProt Q9NZQ7 19-238); assay: SPR, Biacore T200, multi-cycle; Fab captured on chip, His-tagged PD-L1 as analyte
T1 construct: also called His-tagged antigen PD-L1 protein; human PD-L1; not shown: His tag
Method: A combinatorial humanization phage display library was constructed using the heavy chain and light chain variable domain sequences of mAb PDL1#10. Briefly, frameworks of human antibodies with high sequence identities to PDL1#10 were selected and assembled using overlapping PCR. This humanized Fab phage display library was panned against PD-L1 Fc-fusion protein. Individual output phage clones were amplified in 96-deep-well plates and the amplified phage were assayed by ELISA against PD-L1 Fc-fusion protein. […] DNAs encoding the Fab fragments of the output phage were amplified and inserted in pFASEBA vector (Genscript) for the screening of the best humanized antibody clones. Individual Fab clones were expressed in 96-deep-well plates and the crude protein secreted by E. coli to the medium was assayed by ELISA against BSA and the antigen PD-L1 protein for the assessment of expression and binding activity, respectively. Thousands of humanized clones were screened and a number of clones with slower off-rate were identified, amongst which 14 clones with the highest binding affinities were subjected to multi-cycle affinity measurement. The binding affinity of the 14 purified Fabs to His-tagged PD-L1 protein were determined using a Surface Plasmon Resonance (SPR) biosensor, Biacore T200 (GE Healthcare) for multi-cycle affinity measurements. Fabs were immobilized on the sensor chip through capture method. His-tagged antigen PD-L1 protein was used as the analyte. The data of dissociation (kd) and association (ka) rate constants were processed using Biacore T200 evaluation software. The equilibrium dissociation constants (KD) were calculated from the ratio of kd over ka.

His-tagged PD-L1 protein [2] = molecular target: T1, His-tagged PD-L1 protein; assay: SPR, Biacore T200, full-length IgG, 1:1 interaction model
Text: Binding data for each antibody was processed and fitted to 1:1 interaction model using Biacore T200 evaluation software. All experimental data could be well fitted to the model.

T1 sequence (Q9NZQ7 19-238 limits assumed): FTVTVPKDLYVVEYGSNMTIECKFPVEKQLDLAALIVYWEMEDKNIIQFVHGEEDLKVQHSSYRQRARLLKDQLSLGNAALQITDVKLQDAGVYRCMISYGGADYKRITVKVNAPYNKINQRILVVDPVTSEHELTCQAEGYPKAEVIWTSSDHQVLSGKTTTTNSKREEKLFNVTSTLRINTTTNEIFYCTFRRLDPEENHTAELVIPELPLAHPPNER

Kd (His-tagged PD-L1 protein [1]) | koff (His-tagged PD-L1 protein [1]) | kon (His-tagged PD-L1 protein [1]) | Kd (His-tagged PD-L1 protein [2]) | koff (His-tagged PD-L1 protein [2]) | kon (His-tagged PD-L1 protein [2]) | Binder
0.87 nM | 0.00054 s⁻¹ | 620000 M⁻¹ s⁻¹ |  |  |  | AS01824 (humanized Fab) (Fab, V domains shown, Purified humanized Fab) VH: QVQLVQSGSELKKPGASVKVSCKASGYTFTSYSINWVRQAPGKGLEWVAYFYVGNGYTDYNEKFKGRVTITADESTSTAYMELSSLRSEDTAVYYCARGGLPYYFDYWGQGTLVTVSS VL: EIVMTQSPATLSVSPGERATLSCKTSQDVNTAVAWYLQKPGQSPQLLIYWASTRHTGVPSRFSGSGSGTDYTLTISSLQPEDFATYYCQQHYNTPLTFGGGTKLEIK
 |  |  | 0.461 nM | 0.000173 s⁻¹ | 376000 M⁻¹ s⁻¹ | AS01814 (humanized full-length IgG) (antibody, V domains shown, Full-length IgG expressed in HEK293 cells, protein A purified) VH: QVQLVQSGSELKKPGASVKVSCKASGYTFTSYSINWVRQAPGKGLEWVAYFYVGNGYTDYNEKFKGRVTITADESTSTAYMELSSLRSEDTAVYYCARGGLPYYFDYWGQGTLVTVSS VL: DIQMTQSPSTLSASVGDRVTITCKTSQDVNTAVAWYQQKPGKAPKLLLYWASTRHTGIPARFSGSGSGTEFTLTISSLQSEDFAVYYCQQHYNTPLTFGGGTKLEIKR
0.38 nM | 0.0002 s⁻¹ | 500000 M⁻¹ s⁻¹ |  |  |  | AS02013 (humanized Fab) (Fab, V domains shown, Purified humanized Fab) VH: EVQLVQSGAEVKKPGESLKISCKGSGYSFTSYSINWVRQAPGKGLEWMGYFYVGNGYTDYNEKFKGRVTMTRNTSISTAYMELSSLRSEDTAVYYCARGGLPYYFDYWGQGTLVTVSS VL: DIQLTQSPSSLSASVGDRVTITCKTSQDVNTAVAWYQQKPGQAPRLLIYWASTRHTGVPSRFSGSGSGTDFTLTISSLQPEDFATYYCQQHYNTPLTFGGGTKLEIK
0.16 nM | 0.00011 s⁻¹ | 680000 M⁻¹ s⁻¹ |  |  |  | AS01814 (humanized Fab) (Fab, V domains shown, Purified humanized Fab) VH: QVQLVQSGSELKKPGASVKVSCKASGYTFTSYSINWVRQAPGKGLEWVAYFYVGNGYTDYNEKFKGRVTITADESTSTAYMELSSLRSEDTAVYYCARGGLPYYFDYWGQGTLVTVSS VL: DIQMTQSPSTLSASVGDRVTITCKTSQDVNTAVAWYQQKPGKAPKLLLYWASTRHTGIPARFSGSGSGTEFTLTISSLQSEDFAVYYCQQHYNTPLTFGGGTKLEIK
1.4 nM | 0.00035 s⁻¹ | 260000 M⁻¹ s⁻¹ |  |  |  | AS01807 (humanized Fab) (Fab, V domains shown, Purified humanized Fab) VH: QVQLVQSGSELKKPGASVKVSCKASGYTFTSYSINWVRQAPGKGLEWMGYFYVGNGYTDYNEKFKGRVTITRDTSASTAYMELSSLRSEDTAVYYCARGGLPYYFDYWGQGTLVTVSS VL: DIQMTQSPSSVSASVGDRVTITCKTSQDVNTAVAWYQQKPDQSPKLLIKWASTRHTGVPSRFSGSGSGTDFTLTISSLQPEDFATYYCQQHYNTPLTFGGGTKLEIK
1.1 nM | 0.00039 s⁻¹ | 360000 M⁻¹ s⁻¹ |  |  |  | AS01825 (humanized Fab) (Fab, V domains shown, Purified humanized Fab) VH: QMQLVQSGAEVKKTGSSVKVSCKASGYTFTSYSINWVRQMPGKGLEWMGYFYVGNGYTDYNEKFKGRVTITADESTSTAYMELSSLRSEDTAVYYCARGGLPYYFDYWGQGTLVTVSS VL: DIQLTQSPSFLSASVGDRVTITCKTSQDVNTAVAWYQQKPGKAPKLLIYWASTRHTGVPSRFSGSGSGTDFTLTISSLQPEDVATYYCQQHYNTPLTFGGGTKLEIK
1.5 nM | 0.00042 s⁻¹ | 310000 M⁻¹ s⁻¹ |  |  |  | AS02002 (humanized Fab) (Fab, V domains shown, Purified humanized Fab) VH: QMQLVQSGAEVKKTGSSVKVSCKASGYTFTSYSINWVRQARGQRLEWIGYFYVGNGYTDYNEKFKGRVTITADESTSTAYMELSSLRSEDTAVYYCARGGLPYYFDYWGQGTLVTVSS VL: DIQMTQSPSSLSASVGDRVTITCKTSQDVNTAVAWYQQKPDQSPKLLIKWASTRHTGIPARFSGSGSGTEFTLTISSLQSEDFAVYYCQQHYNTPLTFGGGTKLEIK
 |  |  | 0.769 nM | 0.000253 s⁻¹ | 329000 M⁻¹ s⁻¹ | AS01790 (humanized full-length IgG) (antibody, V domains shown, Full-length IgG expressed in HEK293 cells, protein A purified) VH: EVQLVQSGAEVKKPGESLKISCKGSGYSFTSYSINWVRQMPGKGLEWMGYFYVGNGYTDYNEKFKGRVTMTRNTSISTAYMELSSLRSEDTAVYYCARGGLPYYFDYWGQGTLVTVSS VL: DIQMTQSPSTLSASVGDRVTITCKTSQDVNTAVAWYQQKPGKAPKLLIYWASTRHTGVPSRFSGSGSGTEFTLTISSLQPEDFATYYCQQHYNTPLTFGGGTKLEIKR
1.1 nM | 0.00036 s⁻¹ | 330000 M⁻¹ s⁻¹ |  |  |  | AS01789 (humanized Fab) (Fab, V domains shown, Purified humanized Fab) VH: EVQLVQSGAEVKKPGESLKISCKGSGYSFTSYSINWVRQAPGQALEWMGYFYVGNGYTDYNEKFKGRVTITRDTSASTAYMELSSLRSEDTAVYYCARGDLPFYFDYWGDGILVTVAS VL: DIVMTQSPDSLAVSLGERATINCKTSQDVNTAVAWYQQKPGQPPKLLIYWASTRHTGVPDRFSGSGSGTDFTLKISRVEAEDVGVYYCQQHYNTPLTFGGGTKLEIK
0.35 nM | 0.00017 s⁻¹ | 500000 M⁻¹ s⁻¹ |  |  |  | AS01790 (humanized Fab) (Fab, V domains shown, Purified humanized Fab derived from PDL1#10 (pFASEBA vector, E. coli)) VH: EVQLVQSGAEVKKPGESLKISCKGSGYSFTSYSINWVRQMPGKGLEWMGYFYVGNGYTDYNEKFKGRVTMTRNTSISTAYMELSSLRSEDTAVYYCARGGLPYYFDYWGQGTLVTVSS VL: DIQMTQSPSTLSASVGDRVTITCKTSQDVNTAVAWYQQKPGKAPKLLIYWASTRHTGVPSRFSGSGSGTEFTLTISSLQPEDFATYYCQQHYNTPLTFGGGTKLEIK
0.37 nM | 0.00017 s⁻¹ | 450000 M⁻¹ s⁻¹ |  |  |  | AS01995 (humanized Fab) (Fab, V domains shown, Purified humanized Fab) VH: EVQLVQSGAEVKKPGESLKISCKGSGYSFTSYSINWVRQAPGKGLEWMGYFYVGNGYTDYNEKFKGRVTMTRNTSISTAYMELSSLRSEDTAVYYCARGGLPYYFDYWGQGTLVTVSS VL: DIQMTQSPSSVSASVGDRVTITCKTSQDVNTAVAWYQQKPGKAPKLLLYWASTRHTGVPSRFSGSGSGTDFTLTISSLQPEDVATYYCQQHYNTPLTFGGGTKLEIK
 |  |  | 0.751 nM | 0.000276 s⁻¹ | 367000 M⁻¹ s⁻¹ | AS02013 (humanized full-length IgG) (antibody, V domains shown, Full-length IgG expressed in HEK293 cells, protein A purified) VH: EVQLVQSGAEVKKPGESLKISCKGSGYSFTSYSINWVRQAPGKGLEWMGYFYVGNGYTDYNEKFKGRVTMTRNTSISTAYMELSSLRSEDTAVYYCARGGLPYYFDYWGQGTLVTVSS VL: DIQLTQSPSSLSASVGDRVTITCKTSQDVNTAVAWYQQKPGQAPRLLIYWASTRHTGVPSRFSGSGSGTDFTLTISSLQPEDFATYYCQQHYNTPLTFGGGTKLEIKR
0.93 nM | 0.00032 s⁻¹ | 340000 M⁻¹ s⁻¹ |  |  |  | AS01817 (humanized Fab) (Fab, V domains shown, Purified humanized Fab) VH: EVQLVQSGAEVKKPGESLKISCKGSGYSFTSYSINWVRQAPGKGLEWMGYFYVGNGYTDYNEKFKGRVTITRDTSASTAYMELSSLRSEDTAVYYCARGGLPYYFDYWGQGTLVTVSS VL: DIQLTQSPSFLSASVGDRVTITCKTSQDVNTAVAWYQQKPGQPPKLLIYWASTRHTGVPSRFSGSGSGTDFTLTISSLQPEDFATYYCQQHYNTPLTFGGGTKLEIK
1.6 nM | 0.00045 s⁻¹ | 290000 M⁻¹ s⁻¹ |  |  |  | AS01978 (humanized Fab) (Fab, V domains shown, Purified humanized Fab) VH: EVQLVQSGAEVKKPGESLKISCKGSGYSFTSYSINWVRQAPGKGLEWMGYFYVGNGYTDYNEKFKGRVTITTDESTSTAYMELSSLRSEDTAVYYCARGGLPYYFDYWGQGTLVTVSS VL: DIQLTQSPSSLSASVGDRVTITCKTSQDVNTAVAWYQQKPDQSPKLLIKWASTRHTGVPSRFSGSGSGTDFTLTISSLQPEDFATYYCQQHYNTPLTFGGGTKLEIK
0.4 nM | 0.00019 s⁻¹ | 470000 M⁻¹ s⁻¹ |  |  |  | AS01979 (humanized Fab) (Fab, V domains shown, Purified humanized Fab) VH: EVQLVQSGAEVKKPGESLKISCKGSGYSFTSYSINWVRQAPGKGLEWMGYFYVGNGYTDYNEKFKGRVTMTRNTSISTAYMELSSLRSEDTAVYYCARGGLPYYFDYWGQGTLVTVSS VL: DIQMTQSPSSVSASVGDRVTITCKTSQDVNTAVAWYQQKPGQPPKLLIYWASTRHTGVPDRFSGSGSGTDFTLTISSLQAEDVAVYYCQQHYNTPLTFGGGTKLEIK
0.29 nM | 0.00021 s⁻¹ | 730000 M⁻¹ s⁻¹ |  |  |  | murine-human chimeric Fab (from mAb PDL1#10) (Fab, V domains shown) VH: EVQLQQSGAELVRPGSSVKMSCKTSGYTFTSYSINWVKQRPGQGLEWIAYFYVGNGYTDYNEKFKGKATLTSDTSSSTAYMQLSSLTSEDSAIYFCARGGLPYYFDYWGQGTTLTVSS VL: DIVMTQSHKFMSTSVGDRVSITCKTSQDVNTAVAWYQQKPGHSPKLLFYWASTRHTGVPDRFTGGGSGTDYTLTISSVQAEDLALYYCQQHYNTPLTFGAGTRLELKR
 |  |  | 1 nM | 0.000338 s⁻¹ | 336000 M⁻¹ s⁻¹ | murine-human chimeric antibody derived from murine PDL1#10 (Chimeric IgG) (antibody, V domains shown, also called mouse-human chimeric antibody) VH: EVQLQQSGAELVRPGSSVKMSCKTSGYTFTSYSINWVKQRPGQGLEWIAYFYVGNGYTDYNEKFKGKATLTSDTSSSTAYMQLSSLTSEDSAIYFCARGGLPYYFDYWGQGTTLTVSS VL: DIVMTQSHKFMSTSVGDRVSITCKTSQDVNTAVAWYQQKPGHSPKLLFYWASTRHTGVPDRFTGGGSGTDYTLTISSVQAEDLALYYCQQHYNTPLTFGAGTRLELKR
